Earlier results as cited in article PMC9739296.

Biological target: DR4 (Homo sapiens) (UniProt O00220)
UniProt O00220, sequence (O00220 24-468): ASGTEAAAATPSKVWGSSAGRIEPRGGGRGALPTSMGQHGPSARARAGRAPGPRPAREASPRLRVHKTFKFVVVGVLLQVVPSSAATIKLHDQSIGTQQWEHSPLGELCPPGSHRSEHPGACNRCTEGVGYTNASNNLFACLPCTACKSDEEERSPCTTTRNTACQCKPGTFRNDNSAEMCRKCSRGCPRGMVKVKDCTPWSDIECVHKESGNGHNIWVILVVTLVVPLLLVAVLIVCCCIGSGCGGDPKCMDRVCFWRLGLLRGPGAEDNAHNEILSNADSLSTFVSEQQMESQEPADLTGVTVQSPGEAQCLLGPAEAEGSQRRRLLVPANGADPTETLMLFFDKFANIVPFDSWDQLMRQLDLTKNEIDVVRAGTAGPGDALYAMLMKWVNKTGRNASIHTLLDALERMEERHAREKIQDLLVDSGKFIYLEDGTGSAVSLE

Substance: TRAIL (from UniProt P50591)
- Kd: 70 nM
